According to the supplement of paper PMC12764529:
± gives the half width of the 95% confidence interval.

How the values were obtained:
[1] = folding stability dG unfold from trypsin proteolysis; higher = more stable
Description: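 Folding stability of de novo designed mini-proteins (<80 aa, no Cys; designed by TrROS, TrMRF, ProteinMPNN and the joint model) was measured by cDNA display proteolysis with trypsin and chymotrypsin. Each protease was used at 11 concentrations in a threefold dilution series plus a no-protease condition. K50 was inferred by Bayesian fitting of sequencing counts, and dG unfold was derived against a sequence-predicted unfolded-state K50 (Tsuboyama et al. method). Sequences shown include variable-length N-terminal GS-type padding (SAGGSAGG...) inside a display construct carrying a PA tag. Rows were kept only if the AF2 dimer inter-PAE was >15, to exclude likely homo-oligomers.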

[2] = folding stability dG unfold (combined trypsin and chymotrypsin); higher = more stable
In short: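 Unfolding free energy was derived, per protease or combined, against a sequence-predicted unfolded-state K50 and a shared folded-state K50, starting from K50 inferred by Bayesian fitting of sequencing counts. Digestion with trypsin and chymotrypsin was carried out on designed mini-proteins under 80 residues without cysteine in a PA-tagged cDNA display construct. Only designs with AlphaFold2 dimer inter-PAE above 15 were kept.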

Sequence | folding stability dG unfold [1] [kcal/mol] | folding stability dG unfold [2] [kcal/mol]
SAGGGSMVNISKEELAKKIAKELGKDFPTENVKVKKEIYPEPVSIYTITIKVPGTNITLNVPITLPESAGGS [r16_42_JUSTAS] | -0.043 ± 0.098 | -0.226 ± 0.22
SAGGGSSMVTTVIPVLRTETLFDENGNVIGPRTTVETIELEAEVPLPPRPPLVFSFVPPELRDPAVLLSAGG [r13_508_JUSTAS] | -0.299 ± 0.24 | < -1
SAGGGVSTSTDPNSDTTTTTVPLPNSDSTATSTHNPSTGTSTTTVPTNNTTTTYSPGGTTTATTTLPTSAGG [r13_101_JUSTAS] | 0.465 ± 0.034 | -0.425 ± 0.18
SAGGKPDIKDIEIDDVEYDPNEGYFRYEVEIKWPGGKERPIEVPMKYEDGRMTPEDIRKMAKKLIKNSAGGS [r16_221_TrROS] | 0.423 ± 0.15 | < -1
SAGGKVREIDFPMDPGELRDAIDELKREGYMVMIEMPNGQERTIDPNLEDLPPGMPFEIYVMPPKDGSAGGS [r16_31_TrROS] | -0.212 ± 0.33 | < -1
SAGGLEAKITEIDEDGYLRIEIVDPETGELIAEIRIKIELPPPPPVPETEEVLDEDGRKRTVTRLYDRSAGG [r13_9_TrROS_Hall] | 0.214 ± 0.13 | -0.406 ± 0.23
SAGGMDVKVEVKEVELPEAKVTITKITTPDGSTSTITYDPETGTADVTTTTPTSTTTTTLPKSEIKPLSAGG [r13_328_JUSTAS] | 0.846 ± 0.097 | 0.184 ± 0.31
SAGGMGQEELENLPPEVVAGLLAEEALAEAERLGRPNEAVTVEVELGDVPLRIELTADGKIARIEAGSAGGS [r16_431_TrMRF] | -0.548 ± 0.14 | < -1
SAGGMPIKPKVELEPLEDAYLVRVRFEAPDRPIEIRRAFASFPDAVREAEEIARFLEEAEIPSPEGGSAGGS [r16_24_TrMRF] | -0.682 ± 0.66 | < -1
SAGGMRIWRVPETGVRAEVGTGGPWLVTITSSTTPVPEVRPVPPEEVEAFLRARFPGPVEEVERRPVPESAG [r5_519_JUSTAS] | -0.647 ± 0.34 | -0.783 ± 0.19
SAGGMTEIEPDSEEKAEAEIEKVVEEEAEKALKSEKKNVTIKVDVKVVDPVTGKSKTYPVEKLVKLPSAGGS [r8_163_JUSTAS] | -1.4 ± 0.83 | < -1
SAGGMTPEELKKVTIEKTVKDPSGNEYLEKSEVKEVEKKDEKYILKIPYTIKDKNGNTISNGTKTIPLSAGG [r13_172_JUSTAS] | -0.446 ± 0.5 | < -1
SAGGMVVTSESREPDGTWTVRTVYRDPAGNLTITSSSTSSATVTRKDSAGTPSTAASTTNTYTSAALSAGGS [r8_270_JUSTAS] | 0.216 ± 0.067 | -0.281 ± 0.15
SAGGNPDWIPIQVPFEDPGDQDAMKKLVEELADIFLDEGIKPIEVEHTNPGHYSVWIPFDGKSIRIHSAGGS [r16_703_TrROS] | -0.37 ± 0.13 | -0.888 ± 0.38
SAGGPKEIIKEIAEKYGITEIMPWDDMKNMPPENPNKIHIWPDPEGHYMVMIRAPNGNKKSIEFPIESAGGS [r16_686_TrROS] | -1.02 ± 0.3 | < -1
SAGGPVVLKIEIEQKTDGKPQERELVIPVKWDPNGQVDADEIKDWVEEALPPGYKIEDIDVVPPGQPFSAGG [r13_504_TrROS] | -0.594 ± 0.22 | < -1

Sequence | folding stability dG unfold [1] [kcal/mol] | folding stability dG unfold [2] [kcal/mol]
SAGGRGQELTIPNGAPIEDIEELAKKDPDYQVKITEIKMQKPKKDPNGKKRPVPMWMKITLYPAGEKSAGGS [r8_172_TrROS] | 0.116 ± 0.27 | < -1
SAGGRPTMTAEEAAIRLIKELGIPGVKDIKEVVAVVRGGDPDNKPEKGSAILIKAEVPAEEVERLKKESAGG [r13_552_TrMRF] | 0.221 ± 0.045 | -0.299 ± 0.11
SAGGSAETYPVTVVVPLPPGGRELPVEELEDLVRETLANVPDLPDVKVEVTLLEPEGRALVRVEFPSAGGSA [r15_1029_TrMRF] | 0.0434 ± 0.12 | -0.594 ± 0.16
SAGGSAFKELLKEIKEQLQQAPPGEQVEVPIPFPDGYPLRIEINPDENKIEVEYPNGEEEEFDIPPSAGGSA [r15_977_TrROS] | 0.133 ± 0.19 | < -1
SAGGSAGGEYKVYPVKGDLKEFFDEAYKENPGGVRIIDPDTDEVLDFPPDLSLDEFPGTFVVLGSAGGSAGG [r6_857_TrMRF] | -0.238 ± 0.13 | < -1
SAGGSAGGGLSASDTVTFPDGTVVTVAPDATVTITVPAPPDAAGNLTSTVTRTVTVAPGTRVLLSAGGSAGG [r6_90_JUSTAS] | -0.907 ± 0.41 | < -1
SAGGSAGGLVIRNPDTNELIELKPGEELTITVTVEAPPAEEETTTETETRTLTLTVRLPEEAEESAGGSAGG [r6_273_TrROS_Hall] | 0.156 ± 0.16 | -0.0133 ± 0.21
SAGGSAGGMKPTVEVRPVPPSARMVVTITLPGSGKKVTIPVPDAPAPEEPERVIEEALAYVKTSSAGGSAGG [r6_331_JUSTAS] | -0.714 ± 0.47 | < -1
SAGGSAGGMPSDTPFTITKITSVTLNDGRGTTKAVVSYPDGSLVTISSSELERLTKENPNLNLVSAGGSAGG [r6_78_JUSTAS] | 0.384 ± 0.062 | -0.0536 ± 0.13
SAGGSAGGNVKIEVEPGPNGNYLIKIRMPNGTKVEHQFDSPEDAEERAKDFAEEFPPNAQVEIWSAGGSAGG [r6_464_TrROS] | -0.00876 ± 0.14 | < -1
SAGGSAGGSAEVEIKVRPDDPIPPNLPIVLPDGKERDARVEAVLDPEDGTPVFKVYFDPRSDSAGGSAGGSA [r18_476_TrMRF] | 0.771 ± 0.048 | 0.0528 ± 0.29
SAGGSAGGSAGATVLQQGTATPPDGTTVTFNYNITLPSDVLISVDKNPPNPDLVTKIEAGSAGGSAGGSAGG [r11_781_JUSTAS] | 0.154 ± 0.029 | -0.197 ± 0.4
SAGGSAGGSAGEPEKPVLVKVILPGGKPLLIPGKREEAKKAVEELEKKGFPVEKAEVFDESAGGSAGGSAGG [r11_946_TrMRF] | -0.485 ± 0.096 | < -1
SAGGSAGGSAGERIPIKVSIHDPDGRMVPMEIKEIDPDDGTIEVKLPGLPPGIRSIHIMLSAGGSAGGSAGG [r17_260_TrROS] | -1.01 ± 0.31 | < -1
SAGGSAGGSAGGAMREVPIVLPFSPEMSEEEARALIEEELKRKGDPIAKLVIDKKSPALLSAGGSAGGSAGG [r7_703_JUSTAS] | -0.687 ± 0.45 | < -1
SAGGSAGGSAGGDVEVKEFTTTDPETGEEIIRVTETIPGNEKIVTTYTKDGKPISTKKILSAGGSAGGSAGG [r7_454_JUSTAS] | -0.0907 ± 0.13 | -0.528 ± 0.24
